Substrate in series [1]: C=C(CC(=O)O)C(=O)O
Nature of the series: PK/LDH-coupled NADH consumption. The conditions noted are these: 0.1 mM CoA, 7 mM MgCl2, pH 7.5, 30 °C. The format is biochemical, Homo sapiens.

Substrate in series [2]: O=C(O)C[C@H](O)C(=O)O
Nature of the series: PK/LDH-coupled NADH consumption. The format is biochemical, Homo sapiens. The conditions noted are these: 0.1 mM CoA, 7 mM MgCl2, pH 7.5, 30 °C.

Substrate in the series “purified protein”: CC(C)(COP(=O)(O)OP(=O)(O)OC[C@H]1O[C@@H](n2cnc3c(N)ncnc32)[C@H](O)[C@@H]1OP(=O)(O)O)[C@@H](O)C(=O)NCCC(=O)NCCSC(=O)C[C@H](O)C(=O)O
Nature of the series: purified protein. The series is classed as biochemical, Sus scrofa. The conditions noted are these: pH 7.5, 37 °C, 100 mM Tris.

B1: SUCL (ADP-forming), SUCLG1:SUCLA2 complex (Homo sapiens) (protein)
chain 1: not shown
chain 2: LSLHEYMSMELLQEAGVSVPKGYVAKSPDEAYAIAKKLGSKDVVIKAQVLAGGRGKGTFESGLKGGVKIVFSPEEAKAVSSQMIGKKLFTKQTGEKGRICNQVLVCERKYPRREYYFAITMERSFQGPVLIGSSHGGVNIEDVAAESPEAIIKEPIDIEEGIKKEQALQLAQKMGFPPNIVESAAENMVKLYSLFLKYDATMIEINPMVEDSDGAVLCMDAKINFDSNSAYRQKKIFDLQDWTQEDERDKDAAKANLNYIGLDGNIGCLVNGAGLAMATMDIIKLHGGTPANFLDVGGGATVHQVTEAFKLITSDKKVLAILVNIFGGIMRCDVIAQGIVMAVKDLEIKIPVVVRLQGTRVDDAKALIADSGLKILACDDLDEAARMVVKLSEIVTLAKQAHVDVKFQLPI
As usually defined, the Km is the substrate concentration at which the rate is half of its maximum. For orientation: kcat means the maximal rate divided by the concentration of active sites. In the case of B1, in series [1] (0.6 mM ATP), the Km came to 19100 ± 2500 µM and the kcat is 0.65 ± 0.08 s⁻¹. Moreover, in series [2] (0.6 mM ATP), the Km was found to be 21900 ± 5800 µM and the kcat amounted to 0.06 ± 0.01 s⁻¹.

B2: citrate synthase (CS) (Sus scrofa) (protein)
chain: ASSTNLKDILADLIPKEQARIKTFRQQHGNTVVGQITVDMMYGGMRGMKGLVYETSVLDPDEGIRFRGYSIPECQKMLPKAKGGEEPLPEGLFWLLVTGQIPTEEQVSWLSKEWAKRAALPSHVVTMLDNFPTNLHPMSQLSAAITALNSESNFARAYAEGIHRTKYWELIYEDCMDLIAKLPCVAAKIYRNLYREGSSIGAIDSKLDWSHNFTNMLGYTDAQFTELMRLYLTIHSDHEGGNVSAHTSHLVGSALSDPYLSFAAAMNGLAGPLHGLANQEVLVWLTQLQKEVGKDVSDEKLRDYIWNTLNSGRVVPGYGHAVLRKTDPRYTCQREFALKHLPHDPMFKLVAQLYKIVPNVLLEQGKAKNPWPNVDAHSGVLLQYYGMTEMNYYTVLFGVSRALGVLAQLIWSRALGFPLERPKSMSTDGLIKLVDSK
For B2, the Km in the series “purified protein” worked out at 106 µM.

B3: SUCL (GDP-forming), SUCLG1:SUCLG2 complex (Homo sapiens) (protein)
chain 1: not shown
chain 2: LNLQEYQSKKLMSDNGVRVQRFFVADTANEALEAAKRLNAKEIVLKAQILAGGRGKGVFNSGLKGGVHLTKDPNVVGQLAKQMIGYNLATKQTPKEGVKVNKVMVAEALDISRETYLAILMDRSCNGPVLVGSPQGGVDIEEVAASNPELIFKEQIDIFEGIKDSQAQRMAENLGFVGPLKSQAADQITKLYNLFLKIDATQVEVNPFGETPEGQVVCFDAKINFDDNAEFRQKDIFAMDDKSENEPIENEAAKYDLKYIGLDGNIACFVNGAGLAMATCDIIFLNGGKPANFLDLGGGVKEAQVYQAFKLLTADPKVEAILVNIFGGIVNCAIIANGITKACRELELKVPLVVRLEGTNVQEAQKILNNSGLPITSAIDLED
Regarding B3, the Km was 1500 ± 200 µM in series [1] (0.6 mM GTP) and 1900 ± 300 µM in series [2] (0.6 mM GTP). In addition, the kcat was found to be 5.3 ± 0.2 s⁻¹ in series [1] (0.6 mM GTP) and 0.18 ± 0.02 s⁻¹ in series [2] (0.6 mM GTP).

(Values after article doi:10.1101/2024.09.25.614871v2.)
